T1: human neuropeptide Y2 receptor (human, UniProt P49146 1-381)
T1 construct: whole, on cells; also called hNPY2 receptor; hNPY2-R
T1 sequence (looked up): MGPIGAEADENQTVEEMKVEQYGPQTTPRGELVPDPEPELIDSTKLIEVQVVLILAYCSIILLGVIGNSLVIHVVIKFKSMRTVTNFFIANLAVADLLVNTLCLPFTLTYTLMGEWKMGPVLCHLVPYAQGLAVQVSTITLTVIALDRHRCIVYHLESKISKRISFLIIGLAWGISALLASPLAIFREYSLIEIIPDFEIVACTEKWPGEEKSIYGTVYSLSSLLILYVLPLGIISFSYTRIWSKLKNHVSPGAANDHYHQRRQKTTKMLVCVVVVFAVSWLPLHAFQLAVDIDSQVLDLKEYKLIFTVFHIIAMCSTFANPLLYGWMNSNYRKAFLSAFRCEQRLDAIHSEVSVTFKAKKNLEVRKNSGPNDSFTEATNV

B1: Compound 220 (peptide)
peptide: Isovaleryl-APEK([AEEA-AEEA-γGlu-C18 diacid])PEEAASAEELQRYYVSLRHYYNWLTRQRY-NH2
SMILES: CC(C)CC(=O)N[C@@H](C)C(=O)N1CCC[C@H]1C(=O)N[C@@H](CCC(=O)O)C(=O)N[C@@H](CCCCNC(=O)COCCOCCNC(=O)COCCOCCNC(=O)CC[C@H](NC(=O)CCCCCCCCCCCCCCCCC(=O)O)C(=O)O)C(=O)N1CCC[C@H]1C(=O)N[C@@H](CCC(=O)O)C(=O)N[C@@H](CCC(=O)O)C(=O)N[C@@H](C)C(=O)N[C@@H](C)C(=O)N[C@@H](CO)C(=O)N[C@@H](C)C(=O)N[C@@H](CCC(=O)O)C(=O)N[C@@H](CCC(=O)O)C(=O)N[C@@H](CC(C)C)C(=O)N[C@@H](CCC(N)=O)C(=O)N[C@@H](CCCNC(=N)N)C(=O)N[C@@H](Cc1ccc(O)cc1)C(=O)N[C@@H](Cc1ccc(O)cc1)C(=O)N[C@H](C(=O)N[C@@H](CO)C(=O)N[C@@H](CC(C)C)C(=O)N[C@@H](CCCNC(=N)N)C(=O)N[C@@H](Cc1c[nH]cn1)C(=O)N[C@@H](Cc1ccc(O)cc1)C(=O)N[C@@H](Cc1ccc(O)cc1)C(=O)N[C@@H](CC(N)=O)C(=O)N[C@@H](Cc1c[nH]c2ccccc12)C(=O)N[C@@H](CC(C)C)C(=O)N[C@H](C(=O)N[C@@H](CCCNC(=N)N)C(=O)N[C@@H](CCC(N)=O)C(=O)N[C@@H](CCCNC(=N)N)C(=O)N[C@@H](Cc1ccc(O)cc1)C(N)=O)[C@@H](C)O)C(C)C
B2: Compound 223 (peptide)
peptide: Isovaleryl-APEK([AEEA-AEEA-γGlu-C18 diacid])PEEAAEPEELQRYYVSLRHYYNWLTRQRY-NH2
SMILES: CC(C)CC(=O)N[C@@H](C)C(=O)N1CCC[C@H]1C(=O)N[C@@H](CCC(=O)O)C(=O)N[C@@H](CCCCNC(=O)COCCOCCNC(=O)COCCOCCNC(=O)CC[C@H](NC(=O)CCCCCCCCCCCCCCCCC(=O)O)C(=O)O)C(=O)N1CCC[C@H]1C(=O)N[C@@H](CCC(=O)O)C(=O)N[C@@H](CCC(=O)O)C(=O)N[C@@H](C)C(=O)N[C@@H](C)C(=O)N[C@@H](CCC(=O)O)C(=O)N1CCC[C@H]1C(=O)N[C@@H](CCC(=O)O)C(=O)N[C@@H](CCC(=O)O)C(=O)N[C@@H](CC(C)C)C(=O)N[C@@H](CCC(N)=O)C(=O)N[C@@H](CCCNC(=N)N)C(=O)N[C@@H](Cc1ccc(O)cc1)C(=O)N[C@@H](Cc1ccc(O)cc1)C(=O)N[C@H](C(=O)N[C@@H](CO)C(=O)N[C@@H](CC(C)C)C(=O)N[C@@H](CCCNC(=N)N)C(=O)N[C@@H](Cc1c[nH]cn1)C(=O)N[C@@H](Cc1ccc(O)cc1)C(=O)N[C@@H](Cc1ccc(O)cc1)C(=O)N[C@@H](CC(N)=O)C(=O)N[C@@H](Cc1c[nH]c2ccccc12)C(=O)N[C@@H](CC(C)C)C(=O)N[C@H](C(=O)N[C@@H](CCCNC(=N)N)C(=O)N[C@@H](CCC(N)=O)C(=O)N[C@@H](CCCNC(=N)N)C(=O)N[C@@H](Cc1ccc(O)cc1)C(N)=O)[C@@H](C)O)C(C)C
B3: Compound 227 (peptide)
peptide: Isovaleryl-APEK([AEEA-AEEA-γGlu-C18 diacid])AEEDASPEELEQYYVSLRHYYNWLTRQRY-NH2
SMILES: CC(C)CC(=O)N[C@@H](C)C(=O)N1CCC[C@H]1C(=O)N[C@@H](CCC(=O)O)C(=O)N[C@@H](CCCCNC(=O)COCCOCCNC(=O)COCCOCCNC(=O)CC[C@H](NC(=O)CCCCCCCCCCCCCCCCC(=O)O)C(=O)O)C(=O)N[C@@H](C)C(=O)N[C@@H](CCC(=O)O)C(=O)N[C@@H](CCC(=O)O)C(=O)N[C@@H](CC(=O)O)C(=O)N[C@@H](C)C(=O)N[C@@H](CO)C(=O)N1CCC[C@H]1C(=O)N[C@@H](CCC(=O)O)C(=O)N[C@@H](CCC(=O)O)C(=O)N[C@@H](CC(C)C)C(=O)N[C@@H](CCC(=O)O)C(=O)N[C@@H](CCC(N)=O)C(=O)N[C@@H](Cc1ccc(O)cc1)C(=O)N[C@@H](Cc1ccc(O)cc1)C(=O)N[C@H](C(=O)N[C@@H](CO)C(=O)N[C@@H](CC(C)C)C(=O)N[C@@H](CCCNC(=N)N)C(=O)N[C@@H](Cc1c[nH]cn1)C(=O)N[C@@H](Cc1ccc(O)cc1)C(=O)N[C@@H](Cc1ccc(O)cc1)C(=O)N[C@@H](CC(N)=O)C(=O)N[C@@H](Cc1c[nH]c2ccccc12)C(=O)N[C@@H](CC(C)C)C(=O)N[C@H](C(=O)N[C@@H](CCCNC(=N)N)C(=O)N[C@@H](CCC(N)=O)C(=O)N[C@@H](CCCNC(=N)N)C(=O)N[C@@H](Cc1ccc(O)cc1)C(N)=O)[C@@H](C)O)C(C)C
B4: Compound 226 (peptide)
peptide: Isovaleryl-APEK([AEEA-AEEA-γGlu-C18 diacid])PEEAASPEETQRYYVSLRHYYNWLTRQRY-NH2
SMILES: CC(C)CC(=O)N[C@@H](C)C(=O)N1CCC[C@H]1C(=O)N[C@@H](CCC(=O)O)C(=O)N[C@@H](CCCCNC(=O)COCCOCCNC(=O)COCCOCCNC(=O)CC[C@H](NC(=O)CCCCCCCCCCCCCCCCC(=O)O)C(=O)O)C(=O)N1CCC[C@H]1C(=O)N[C@@H](CCC(=O)O)C(=O)N[C@@H](CCC(=O)O)C(=O)N[C@@H](C)C(=O)N[C@@H](C)C(=O)N[C@@H](CO)C(=O)N1CCC[C@H]1C(=O)N[C@@H](CCC(=O)O)C(=O)N[C@@H](CCC(=O)O)C(=O)N[C@H](C(=O)N[C@@H](CCC(N)=O)C(=O)N[C@@H](CCCNC(=N)N)C(=O)N[C@@H](Cc1ccc(O)cc1)C(=O)N[C@@H](Cc1ccc(O)cc1)C(=O)N[C@H](C(=O)N[C@@H](CO)C(=O)N[C@@H](CC(C)C)C(=O)N[C@@H](CCCNC(=N)N)C(=O)N[C@@H](Cc1c[nH]cn1)C(=O)N[C@@H](Cc1ccc(O)cc1)C(=O)N[C@@H](Cc1ccc(O)cc1)C(=O)N[C@@H](CC(N)=O)C(=O)N[C@@H](Cc1c[nH]c2ccccc12)C(=O)N[C@@H](CC(C)C)C(=O)N[C@H](C(=O)N[C@@H](CCCNC(=N)N)C(=O)N[C@@H](CCC(N)=O)C(=O)N[C@@H](CCCNC(=N)N)C(=O)N[C@@H](Cc1ccc(O)cc1)C(N)=O)[C@@H](C)O)C(C)C)[C@@H](C)O
B5: Compound 229 (peptide)
peptide: Isovaleryl-APEK([AEEA-AEEA-γGlu-C18 diacid])PEEDASPEELQRYYVSARHYYNWLTRQRY-NH2
SMILES: CC(C)CC(=O)N[C@@H](C)C(=O)N1CCC[C@H]1C(=O)N[C@@H](CCC(=O)O)C(=O)N[C@@H](CCCCNC(=O)COCCOCCNC(=O)COCCOCCNC(=O)CC[C@H](NC(=O)CCCCCCCCCCCCCCCCC(=O)O)C(=O)O)C(=O)N1CCC[C@H]1C(=O)N[C@@H](CCC(=O)O)C(=O)N[C@@H](CCC(=O)O)C(=O)N[C@@H](CC(=O)O)C(=O)N[C@@H](C)C(=O)N[C@@H](CO)C(=O)N1CCC[C@H]1C(=O)N[C@@H](CCC(=O)O)C(=O)N[C@@H](CCC(=O)O)C(=O)N[C@@H](CC(C)C)C(=O)N[C@@H](CCC(N)=O)C(=O)N[C@@H](CCCNC(=N)N)C(=O)N[C@@H](Cc1ccc(O)cc1)C(=O)N[C@@H](Cc1ccc(O)cc1)C(=O)N[C@H](C(=O)N[C@@H](CO)C(=O)N[C@@H](C)C(=O)N[C@@H](CCCNC(=N)N)C(=O)N[C@@H](Cc1c[nH]cn1)C(=O)N[C@@H](Cc1ccc(O)cc1)C(=O)N[C@@H](Cc1ccc(O)cc1)C(=O)N[C@@H](CC(N)=O)C(=O)N[C@@H](Cc1c[nH]c2ccccc12)C(=O)N[C@@H](CC(C)C)C(=O)N[C@H](C(=O)N[C@@H](CCCNC(=N)N)C(=O)N[C@@H](CCC(N)=O)C(=O)N[C@@H](CCCNC(=N)N)C(=O)N[C@@H](Cc1ccc(O)cc1)C(N)=O)[C@@H](C)O)C(C)C
B6: Compound 224 (peptide)
peptide: Isovaleryl-APEK([AEEA-AEEA-γGlu-C18 diacid])PGEEASPEELEQYYVSLRHYYNWLTRQRY-NH2
SMILES: CC(C)CC(=O)N[C@@H](C)C(=O)N1CCC[C@H]1C(=O)N[C@@H](CCC(=O)O)C(=O)N[C@@H](CCCCNC(=O)COCCOCCNC(=O)COCCOCCNC(=O)CC[C@H](NC(=O)CCCCCCCCCCCCCCCCC(=O)O)C(=O)O)C(=O)N1CCC[C@H]1C(=O)NCC(=O)N[C@@H](CCC(=O)O)C(=O)N[C@@H](CCC(=O)O)C(=O)N[C@@H](C)C(=O)N[C@@H](CO)C(=O)N1CCC[C@H]1C(=O)N[C@@H](CCC(=O)O)C(=O)N[C@@H](CCC(=O)O)C(=O)N[C@@H](CC(C)C)C(=O)N[C@@H](CCC(=O)O)C(=O)N[C@@H](CCC(N)=O)C(=O)N[C@@H](Cc1ccc(O)cc1)C(=O)N[C@@H](Cc1ccc(O)cc1)C(=O)N[C@H](C(=O)N[C@@H](CO)C(=O)N[C@@H](CC(C)C)C(=O)N[C@@H](CCCNC(=N)N)C(=O)N[C@@H](Cc1c[nH]cn1)C(=O)N[C@@H](Cc1ccc(O)cc1)C(=O)N[C@@H](Cc1ccc(O)cc1)C(=O)N[C@@H](CC(N)=O)C(=O)N[C@@H](Cc1c[nH]c2ccccc12)C(=O)N[C@@H](CC(C)C)C(=O)N[C@H](C(=O)N[C@@H](CCCNC(=N)N)C(=O)N[C@@H](CCC(N)=O)C(=O)N[C@@H](CCCNC(=N)N)C(=O)N[C@@H](Cc1ccc(O)cc1)C(N)=O)[C@@H](C)O)C(C)C

In US20210139548A1 (published 2021) one finds Ki data, which are given here for six molecules.

*1 amine or outer side, *2 acyl side, *3 side chain or, on linkers, in order; H or OH if unused. Side-chain parts run from the residue outwards. The star is where a group is joined. C18 diacid = O=C(O)CCCCCCCCCCCCCCCCC(=O)*; γGlu = O=C(O)[C@H](CCC(=O)[*:2])N[*:1]; Isovaleryl = CC(C)CC(=O)*; AEEA = NCCOCCOCC(=O)O

This assay has as its target T1, human neuropeptide Y2 receptor. Description: radioligand competition (125I-PYY(1-36)), hNPY2R membranes. The gist of the method:
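Commercial human Y2 receptor membranes (0.5 μg protein/well) were incubated with peptide for 2 h at room temperature in 50 mM HEPES, 5 mM MgCl₂, 1 mM CaCl₂, pH 7.4, with 0.2% ovalbumin. Bound radioligand was separated on PEI-soaked GF/C filters and counted by scintillation, and IC₅₀ came from nonlinear sigmoidal regression.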
In the case of B1, affinity was put at a Ki of 2.99 nM. Turning to B2, the Ki (as a rule, the equilibrium dissociation constant of an inhibitor or competing ligand from its target) amounted to 4.77 nM. B3 displayed a Ki of 12.3 nM. B4 displayed a Ki of 1.21 nM. Molecule B5 returned a Ki of 2.84 nM. B6: the Ki worked out at 4.64 nM. Compared with the last molecule, the Ki is about 1.6-fold higher.
